In test [1] the target is T1, human CLD18A1 (human, UniProt P56856 1-261).
T1 construct: on transfected HEK293 or CHO cells; also called claudin 18 splice variant 1; NP-057453
The test is described as follows: flow cytometry on HEK293-CLD18A1 cells.

For test [2], the target named is T2, murine CLD18A1 (mouse, UniProt P56857 1-264).
T2 construct: on transiently transfected HEK293 cells; also called mouse CLD18A1; NP-062789
The experiment in a line: flow cytometry on transfected HEK293 cells.
Method: Binding of the identified monoclonal antibodies to murine CLD18A2 and CLD18A1 was analyzed by flow cytometry. […] Binding was assessed by flow cytometry using a BD FACSArray.

The target of test [3] is T1, human CLD18A1. The experiment in a line: summary table of murine antibodies.
In test [4] the target is T2, murine CLD18A1. The test is described as follows: summary table of murine antibodies.
Test [5] has as its target T3, Peptide 6 QGLWRSCVRESSGFT (human).
T3 construct: linear 15mer of the SPOT peptide scan, no exchange
T3 peptide: QGLWRSCVRESSGFT
The test is described as follows: SPOT peptide scan, peroxidase-conjugated antibody, luminescence; no exchange.

Test [6] concerns the target T4, Peptide 7 RSCVRESSGFTECRG (human).
T4 construct: linear 15mer of the SPOT peptide scan, no exchange
T4 peptide: RSCVRESSGFTECRG
Described as above.

In test [7] the target is T5, Peptide 1 MDQWSTQDLYNNPVT (human).
T5 construct: linear 15mer of the SPOT peptide scan; has no cysteine, so the Cys-Ser exchange row is the same peptide
T5 peptide: MDQWSTQDLYNNPVT
The description is as above.

Test [8] addresses T6, Peptide 7, Cys-Ser exchange (human).
T6 construct: also called peptide 7 containing serines instead of the two cysteines
T6 peptide: RSSVRESSGFTESRG
The experiment in a line: SPOT peptide scan, peroxidase-conjugated antibody, luminescence; Cys-Ser exchange.

Test [9] addresses T7, Peptide 3 LYNNPVTAVFNYQGL (human).
T7 construct: linear 15mer of the SPOT peptide scan; has no cysteine, so the Cys-Ser exchange row is the same peptide
T7 peptide: LYNNPVTAVFNYQGL
The experiment in a line: SPOT peptide scan, peroxidase-conjugated antibody, luminescence; no exchange.

For test [10], the target named is T8, Peptide 5 VFNYQGLWRSCVRES (human).
T8 construct: linear 15mer of the SPOT peptide scan, no exchange
T8 peptide: VFNYQGLWRSCVRES
The description is as above.

The target in test [11] is T9, Peptide 6, Cys-Ser exchange (human).
T9 peptide: QGLWRSSVRESSGFT
The test is described as follows: SPOT peptide scan, peroxidase-conjugated antibody, luminescence; Cys-Ser exchange.

Test [12] deals with T10, Peptide 5, Cys-Ser exchange (human).
T10 peptide: VFNYQGLWRSSVRES
Described as above.

In test [13] the target is T1, human CLD18A1. The experiment in a line: summary of properties.
Test [14] deals with T2, murine CLD18A1. The experiment in a line: summary of properties.

Nine molecules from US20100166779A1 (GANYMED PHARMACEUTICALS, published 2010) can be followed below.

B1: ch-43A11 (antibody, V domains shown)
VH: QVQLQQSGAELMKPGASVKISCKATGYTFSSYWIEWVKQRPGHGLEWIGEILPGSGSTNYNEKFKGKATFTADTSSNTAYMQLSSLTSEDSAVYYCARYDYPWFAYWGQGTLVTVSA
VL: QIVLTQSPAIMSASPGEKVTITCSASSSVSYMHWFQQKPGTSPKLWIYSTSNLASGVPARFSGSGSGTSYSLTISRMEAEDAATYYCQQRSSYPPTFGGGTKLEIKR
notes: mouse/human chimeric, human gamma-1 and kappa constant regions; also called chimeric 43A11
Take B1: the binding result in test [1] is “no binding”.

B2: 43A11 (antibody, IgG2a, V domains shown)
VH: QVQLQQSGAELMKPGASVKISCKATGYTFSSYWIEWVKQRPGHGLEWIGEILPGSGSTNYNEKFKGKATFTADTSSNTAYMQLSSLTSEDSAVYYCARYDYPWFAYWGQGTLVTVSA
VL: QIVLTQSPAIMSASPGEKVTITCSASSSVSYMHWFQQKPGTSPKLWIYSTSNLASGVPARFSGSGSGTSYSLTISRMEAEDAATYYCQQRSSYPPTFGGGTKLEIK
notes: mouse monoclonal IgG2a, kappa; also called 182-D1106-062; DSM ACC2742
Regarding B2, the binding result in test [1] is “no binding”.

B3: 163E12 (antibody, IgG3, V domains shown)
VH: QIQLVQSGPELKKPGETVKISCKASGYTFTNYGMNWVKQAPGKGLKWMGWINTNTGEPTYAEEFKGRFAFSLETSASTAYLQINNLKNEDTATYFCARLGFGNAMDYWGQGTSVTVSS
VL: DIVMTQSPSSLTVTAGEKVTMSCKSSQSLLNSGNQKNYLTWYQQKPGQPPKLLIYWASTRESGVPDRFTGSGSGTDFTLTISSVQAEDLAVYYCQNDYSYPLTFGAGTKLELK
notes: mouse monoclonal IgG3, kappa; also called 182-D1106-294; DSM ACC2809
With B3, the binding result in [2] and in test [1] was “no binding” in each case.

B4: ch-125E1 (antibody, V domains shown)
VH: QVQLQQSGAELARPGASVKLSCKASGYTFTDYYINWVKQRTGQGLEWIGEIYPGSGNTYYNEKFKGKATLTADKSSSTAYMQLSSLTSEDSAVYFCARSYGAFDYWGQGTTLTVSS
VL: DIVMTQSQKFMSTSVGDRVSITCKASQNVRTAVAWYQQKPGQSPKALIYLASNRHTGVPDRFTGSGSGTDFTLTISNVQSEDLADYFCLQHWNYPLTFGGGTKLEIKR
notes: mouse/human chimeric, human gamma-1 and kappa constant regions; also called chimeric 125E1
With B4, in [1], the binding result was “no binding”.

B5: 125E1 (antibody, IgG2a, V domains shown)
VH: QVQLQQSGAELARPGASVKLSCKASGYTFTDYYINWVKQRTGQGLEWIGEIYPGSGNTYYNEKFKGKATLTADKSSSTAYMQLSSLTSEDSAVYFCARSYGAFDYWGQGTTLTVSS
VL: DIVMTQSQKFMSTSVGDRVSITCKASQNVRTAVAWYQQKPGQSPKALIYLASNRHTGVPDRFTGSGSGTDFTLTISNVQSEDLADYFCLQHWNYPLTFGGGTKLEIK
notes: mouse monoclonal IgG2a, kappa; also called 182-D1106-279; DSM ACC2808
For the molecule B5, the binding result in test [3] and in [4] was “no binding” throughout.

B6: ch-175D10 (antibody, V domains shown)
VH: QVQLQQPGAELVRPGASVKLSCKASGYTFTSYWINWVKQRPGQGLEWIGNIYPSDSYTNYNQKFKDKATLTVDKSSSTAYMQLSSPTSEDSAVYYCTRSWRGNSFDYWGQGTTLTVSS
VL: DIVMTQSPSSLTVTAGEKVTMSCKSSQSLLNSGNQKNYLTWYQQKPGQPPKLLIYWASTRESGVPDRFTGSGSGTDFTLTISSVQAEDLAVYYCQNDYSYPFTFGSGTKLEIKR
notes: mouse/human chimeric, human gamma-1 and kappa constant regions; peroxidase-conjugated in the peptide scan; also called chimeric 175D10
As for B6, the binding result in test [5], in test [6], in [7] and in test [8] was “binds” throughout.

B7: ch-163E12 (antibody, V domains shown)
VH: QIQLVQSGPELKKPGETVKISCKASGYTFTNYGMNWVKQAPGKGLKWMGWINTNTGEPTYAEEFKGRFAFSLETSASTAYLQINNLKNEDTATYFCARLGFGNAMDYWGQGTSVTVSS
VL: DIVMTQSPSSLTVTAGEKVTMSCKSSQSLLNSGNQKNYLTWYQQKPGQPPKLLIYWASTRESGVPDRFTGSGSGTDFTLTISSVQAEDLAVYYCQNDYSYPLTFGAGTKLELKR
notes: mouse/human chimeric, human gamma-1 and kappa constant regions; peroxidase-conjugated in the peptide scan; also called chimeric 163E12
Turning to B7, the binding result is given as “binds” in test [5]; “binds” in [7]; “binds” in [9]; “binds” in [10]; “no binding” in test [1]; “binds” in test [11]. Further, the binding result in test [12] is on record as “binds”.

B8: ch-166E2 (antibody, V domains shown)
VH: QVQLQQSGPELVKPGASVKMSCKASGYTFTDYVISWVKQRTGQGLEWIGEIYPGSGSTYYNEKFKGKATLTADKSSNTAYMQLSSLTSEDSAVYFCARGVLLRAMDYWGQGTSVTVSS
VL: DIVMSQSPSSLAVSAGEKVTMSCKSSQSLLNSRTRKNYLAWYQQKPGQSPKLLIYWASTRESGVPDRFTGSGSGTDFTLTISSVQAEDLAVYYCKQSYNLYTFGGGTKLEIKR
notes: mouse/human chimeric, human gamma-1 and kappa constant regions; also called chimeric 166E2
For the molecule B8, the binding result in test [1] is on record as “no binding”.

B9: 166E2 (antibody, IgG3, V domains shown)
VH: QVQLQQSGPELVKPGASVKMSCKASGYTFTDYVISWVKQRTGQGLEWIGEIYPGSGSTYYNEKFKGKATLTADKSSNTAYMQLSSLTSEDSAVYFCARGVLLRAMDYWGQGTSVTVSS
VL: DIVMSQSPSSLAVSAGEKVTMSCKSSQSLLNSRTRKNYLAWYQQKPGQSPKLLIYWASTRESGVPDRFTGSGSGTDFTLTISSVQAEDLAVYYCKQSYNLYTFGGGTKLEIK
notes: mouse monoclonal IgG3, kappa; also called 182-D1106-308
Consider B9, for which the binding result in test [13] and in test [14] was “no binding” in each case.
